How the values were obtained:
human MSLN-His-Avi [1] = target: T1, human MSLN-His-Avi (human, UniProt Q13421 296-598, single biotin (BirA) in the biotinylated form); test: SPR (Biacore), hMSLN-His-Avi immobilised at 50 RU, mAb injected
T1 construct: Monomeric, made in HEK293-6E; Used both immobilised and in solution; also called hMSLN-His-Avi; biotinylated hMSLN-His-Avi
Protocol: Human MSLN-His-Avi was immobilised on flow cell 2 on a CM5 Series S BIAcore sensor chip (GE Healthcare, BR100530) using an amine coupling kit (GE Healthcare, BR10050) to approximately 200 response units (RU). Flow cell 1 was left blank for subtraction. HEK293-6E supernatants or purified proteins were adjusted with HBS-EP+(GE Healthcare) to approximately 50 nM anti-MSLN mAb per sample. Samples were injected over flow cell 1 and 2 for 2.5 min at 30 μl/min and then allowed to dissociate in HBS-EP buffer for 2.5 min. Regeneration was achieved by injecting 10 mM glycine pH 1.5 (GE Healthcare, BR100354) for 30 seconds at a rate of 30 μl/min. Subtracted data (flow cell 2−flow cell 1) were analysed using BIAevaluation 3.2 Software (GE Healthcare).
For each bin described in 2.1.3, the binding kinetics were determined using the same method as described in section 2.1.2, except that human or cyno MSLN-His-Avi was immobilised at 50 or 100 RU. Clones were tested at a concentration range of 81 nM to 0.33 nM in 3-fold dilutions.

[2] = target: human Thrombomodulin (Peprotech, 100-58) (human, UniProt P07204 19-515); test: ELISA, antigen coated at 1 ug/ml
Chain of human Thrombomodulin (Peprotech, 100-58) (P07204 19-515 limits assumed): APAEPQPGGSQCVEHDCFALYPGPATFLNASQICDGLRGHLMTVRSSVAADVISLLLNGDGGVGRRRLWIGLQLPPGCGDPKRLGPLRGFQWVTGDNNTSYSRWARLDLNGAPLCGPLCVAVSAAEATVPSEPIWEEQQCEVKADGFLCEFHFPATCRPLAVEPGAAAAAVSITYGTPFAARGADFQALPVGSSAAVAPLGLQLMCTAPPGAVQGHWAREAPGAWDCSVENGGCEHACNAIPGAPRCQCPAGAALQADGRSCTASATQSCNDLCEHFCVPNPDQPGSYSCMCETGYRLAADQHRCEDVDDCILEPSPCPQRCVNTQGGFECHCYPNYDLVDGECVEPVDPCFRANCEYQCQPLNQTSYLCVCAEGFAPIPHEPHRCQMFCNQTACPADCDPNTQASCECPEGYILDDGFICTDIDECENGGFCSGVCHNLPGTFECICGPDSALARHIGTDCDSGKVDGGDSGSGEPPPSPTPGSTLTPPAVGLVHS
Protocol: A similar protocol was used as described in section 1.2.1 in which maxisorp plates were coated with 1 μg/ml of recombinant human MSLN-His-Avi, human CEACAM-5-His-Fc (Sino Biological, 1077-H03H), human E-Cadherin (R&D systems, 8505-EC), human Thrombomodulin (Peprotech, 100-58) or human EpCAM-hFc (in-house production). Binding of the anti-MSLN mAbs, tested at a concentration range of 0.02 to 1000 nM (3-fold dilutions) was detected using anti-human Fab-HRP (Sigma, A0293). Positive controls for the respective molecules included human EpCAM antibody (clone 2G8 from patent no. U.S. Pat. No. 8,236,308 B2) CEACAM-5 antibody (clone hMN15 from patent no. U.S. Pat. No. 8,771,690 B2), human E-Cadherin antibody, mouse IgG2b clone 180215 (R&D systems, MAB1838), human Thrombomodulin antibody, mouse IgG1, clone 501733 (R&D systems, MAB3947). The latter two were detected using goat anti mouse Fc-HRP (Sigma, A9309) as secondary mAb.

human MSLN-His-Avi [3] = target: T1, human MSLN-His-Avi; test: competition ELISA: mAb pre-mixed with biotinylated hMSLN-His-Avi, binding to coated MUC16 (competitor)
Protocol: Plates were washed 3 times with 1× PBS and blocked with 300 μl PBS containing 2% Tween20 and 2% Marvel Milk. A concentration of anti-MSLN mAbs (0.23 nM to 500 nM, 3-fold dilutions) were pre-mixed with biotinylated hMSLN-His-Avi antigen (final concentration 2 μg/ml) in a volume of 100 μl for 1 hr at room temperature. After removal of the blocking solution, the mAb/MSLN mixture was added to the plates and incubated for 1 hr at room temperature. Plates were washed 3 times with PBST (1× PBS and 0.05% Tween20) and incubated with streptavidin-HRP (Thermo Scientific, 21126, 1:1000 dilution in 1× PBS) for 1 hr at room temperature. Finally, plates were washed 3 times with PBST and 3 times with PBS. […] Absorbances were read at 450-630 nm (Gen5 software, BioTek).

[4] = target: T2, cell surface human mesothelin (MSLN) (human, UniProt Q13421 296-598); test: flow cytometry on NCI-H226 cells (endogenous cell surface MSLN), detection with anti-human IgG-PE, geometric mean MFI
T2 construct: whole, on cells; also called cell surface MSLN
T2 sequence (Q13421 other isoform, or with tags, fused parts or gaps limits assumed): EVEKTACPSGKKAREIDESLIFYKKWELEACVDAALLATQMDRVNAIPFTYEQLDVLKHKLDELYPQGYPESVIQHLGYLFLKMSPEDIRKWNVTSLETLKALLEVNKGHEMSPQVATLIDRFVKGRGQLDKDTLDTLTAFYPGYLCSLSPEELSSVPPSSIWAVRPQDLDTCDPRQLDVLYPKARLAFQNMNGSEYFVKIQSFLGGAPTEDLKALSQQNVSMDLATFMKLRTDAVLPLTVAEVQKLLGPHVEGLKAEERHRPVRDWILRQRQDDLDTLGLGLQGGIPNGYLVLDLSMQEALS
Protocol: Briefly, NCI-H226 cells (ATCC CRL-5826) were harvested from T175 cell culture flasks using StemPro Accutase (Gibco, A11105-01). Cells were centrifuged at 1200 rpm for 3 min and resuspended in ice cold FACS buffer made up of DPBS (Life Technologies, 14190169) and 1% BSA (Sigma-Aldrich, A7906) at 2×10⁶ cells/ml and 50 μl per well was seeded in a 96-well V-bottom plate (Costar, 3894). All mAbs tested were diluted in FACS buffer in 120 μl at a concentration range of 0.01-200 nM (4-fold dilutions). The NCI-H226 cells were then centrifuged, supernatant removed and cells resuspended in 100 μl of each mAb dilution and incubated at 4° C. for 45 min. Cells were washed twice by centrifugation with 150 μl FACS buffer, resuspended in 100 μl containing goat anti-human IgG (γ-chain specific) F(ab′)2 fragment-R-Phycoerythrin antibody (Sigma, P8047) diluted 1:1000 in FACS buffer and incubated at 4° C. for 45 min. The cells were washed once with 150 μl FACS buffer and then with 150 μl DPBS, resuspended in 150 μl DPBS containing DAPI (Biotium, 40043) at 1:10.000 and read on the BDCantoll or iQue (Intellicyt). Data was analysed using FlowJo v10 to determine the signal geometric mean for PE for live cells in each well.

T1 sequence (Q13421 other isoform, or with tags, fused parts or gaps): as the sequence (Q13421 other isoform, or with tags, fused parts or gaps limits assumed) above

Kd (human MSLN-His-Avi [1]) [nM] | binding result [2] | IC50 (human MSLN-His-Avi [3]) [nM] | EC50 (read off the curve) [4] [nM] | Binder
0.77 | no binding (tested: 1000 nM) | 2.9 | ~1 | G1-AA/FS28-024 (antibody, human IgG1, kappa, L234A L235A, V domains shown, Complete human IgG1 with LALA mutation; also called FS28-024 mAb (in G1-AA format)) VH: EVQLLESGGGLVQPGGSLRLSCAASGFTLSYSSMSWVRQAPGKGLEWVSFITPSTGYTHYADSVKGRFTISRDNSKNTLYLQMNSLRAEDTAVYYCARRALTFDYWGQGTLVTVSS VL: EIVLTQSPGTLSLSPGERATLSCRASQSVSSSYLAWYQQKPGQAPRLLIYGASSRATGIPDRFSGSGSGTDFTLTISRLEPEDFAVYYCQQASSYPLTFGQGTKVEIKR
0.21 | no binding (tested: 1000 nM) | 5.2 | ~1 | G1-AA/FS28-026 (antibody, human IgG1, kappa, L234A L235A, V domains shown, IgG1 LALA; also called FS28-026 mAb (in G1-AA format)) VH: EVQLLESGGGLVQPGGSLRLSCAASGFTFSNYAMTWVRQAPGKGLEWVSSITPYYSKTDYADSVKGRFTISRDNSKNTLYLQMNSLRAEDTAVYYCARNWYRFDYWGQGTLVTVSS VL: not shown
1.24 | no binding (tested: 1000 nM) | 4.4 | ~1 | G1-AA/FS28-091 (antibody, human IgG1, kappa, L234A L235A, V domains shown, IgG1 LALA; also called FS28-091 mAb (in G1-AA format)) VH: EVQLLESGGGLVQPGGSLRLSCAASGFTFTNYAMSWVRQAPGKGLEWVSSIKPYDGNTYYADSVKGRFTISRDNSKNTLYLQMNSLRAEDTAVYYCARNRWVFDYWGQGTLVTVSS VL: not shown
